The values that follow come from PMC5727262, “Molecular mechanism of K65 acetylation-induced attenuation of Ubc9 and the NDSM interaction” (Scientific Reports, 2017).

The labels stand for the following.
B1: GST-RanGAP1_481-587: GST fusion of the sumoylation motif region derived from RanGAP1, sumoylation substrate (protein)
chain: KDEATVRMAVQDAVDALMQKAFNSSSFNSNTFLTRLLVHMGLLKSEDKVKAIANLYGPLMALNHMVQQDYFPKALAPLLLAFVTKPNSALESCSFARHSLLQTLYKV
modifications: left off: GST, end not stated, kept
notes: GST fusion of the sumoylation motif region derived from RanGAP1, sumoylation substrate
B2: GST-CBP1000-1080: GST fusion of the sumoylation motif region derived from CBP, sumoylation substrate (protein)
chain: ETQAEDTEPDPGESKGEPRSEMMEEDLQGASQVKEETDIAEQKSEPMEVDEKKPEVKVEVKEEEESSSNGTASQSTSPSQP
modifications: left off: GST, end not stated, kept
notes: GST fusion of the sumoylation motif region derived from CBP, sumoylation substrate
B3: GST-Elk1_200-261: GST fusion of the sumoylation motif region derived from Elk1, sumoylation substrate (protein)
chain: SPSPLEACLEAEEAGLPLQVILTPPEAPNLKSEELNVEPGLGRALPPEVKVEGPKEELEVAG
modifications: also: GST fusion partner not in chain
notes: GST fusion of the sumoylation motif region derived from Elk1, sumoylation substrate

In the first data set the target is T1, Ac-Ubc9K65 (Homo sapiens, UniProt P63279).
T1 construct: made in house; host or cells: E. coli BL21 (DE3) with pAcKRS-3 and pCDF PylT-1-Ubc9 (amber codon at K65), fed acetyl-lysine
T1 sequence (P63279 2-158): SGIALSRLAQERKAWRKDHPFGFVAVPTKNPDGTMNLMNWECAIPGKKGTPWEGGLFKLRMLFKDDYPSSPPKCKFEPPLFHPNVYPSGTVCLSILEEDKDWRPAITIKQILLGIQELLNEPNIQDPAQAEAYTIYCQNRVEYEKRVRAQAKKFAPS
Briefly: Multiple-turnover in vitro sumoylation kinetics with Ac-Ubc9K65. The following applies: Michaelis-Menten, SUMO-1 conjugation, 100 nM Ac-Ubc9K65, 10 μM SUMO-1, 150 nM E1, pH 7.5, SDS-PAGE/SYPRO-RUBY, triplicate. In kind it is biochemical. As to the method: (§1) Although the decreased Ubc9 binding to the NDSM substrates on K65 acetylation could explain the reduced levels of NDSM substrate sumoylation, we could not entirely exclude the possibility that K65 acetylation could also affect Ubc9 catalytic activity. To test this possibility, an enzyme kinetics study was performed using multiple-turnover in vitro sumoylation assays between WT or Ac-Ubc9K65 and GST fusion of SM derived from RanGAP1 (Fig. 3A and B), Elk1 (Fig. 3C and D), and CBP (Fig. 3E and F). […] In line with the ITC results, K65 acetylation increased the km values by 1.5–1.7 fold of the NDSM peptides, but not the RanGAP1 SM.
(§2) Figure 3 Effect of K65 acetylation on Ubc9 catalysis. (A) Summary of Michaelis–Menten kinetics applied to SUMO conjugation rates for GST-RanGAP1_481-587 (B and C), GST-Elk1_200-261 (D and E) and GST-CBP1000-1080 (F and G). Experiments performed in triplicate. TEXT PRINTED IN THE PICTURE: (A) RanGAP1: Km (μM): 24.8 ± 1.7 (Ubc9: WT); kcat (min^-1): 4.3 ± 0.1 (Ubc9: WT); Km (μM): 21.0 ± 4.4 (Ubc9: K65-Ac); kcat (min^-1): 4.1 ± 0.3 (Ubc9: K65-Ac) | (A) Elk1: Km (μM): 75.2 ± 5.9 (Ubc9: WT); kcat (min^-1): 3.7 ± 0.5 (Ubc9: WT); Km (μM): 110.7 ± 7.8 (Ubc9: K65-Ac); kcat (min^-1): 4.0 ± 0.2 (Ubc9: K65-Ac) | (A) CBP: Km (μM): 63.8 ± 7.9 (Ubc9: WT); kcat (min^-1): 3.8 ± 0.4 (Ubc9: WT); Km (μM): 111.0 ± 11.6 (Ubc9: K65-Ac); kcat (min^-1): 4.5 ± 0.4 (Ubc9: K65-Ac) | (A) Calpain2: Km (μM): N.D. (Ubc9: WT); kcat (min^-1): N.D. (Ubc9: WT); Km (μM): N.D. (Ubc9: K65-Ac); kcat (min^-1): N.D. (Ubc9: K65-Ac)
(§3) The kinetic analysis[27] was performed in a 40 μl reaction mixture containing 10 μM SUMO-1, 150 nM E1, 100 nM WT or Ac-Ubc9K65, and known quantities of sumoylation substrate dissolved in a buffer containing 20 mM HEPES (pH 7.5), 100 mM NaCl, 5 mM MgCl2, and 2 mM ATP. The samples were subject to SDS-PAGE and visualized by SYPRO-RUBY staining using the UVP Gel-Doc-It system to quantify the sumoylated and non-sumoylated protein bands. Data from triplicate experiments were plotted as a graph of reaction velocity against concentration of the substrate to obtain the Michaelis–Menten constant (km) and the turnover number (kcat).
For orientation: Km means the concentration of substrate that gives half-maximal velocity. For the molecule B1, the Km worked out at 21 ± 4.4 µM.
Same read-out and setting: for B2 the value was 111 ± 11.6 µM; for B3, 111 ± 7.8 µM.

Staying with this data set, now noted: Michaelis-Menten, SUMO-1 conjugation, 100 nM Ac-Ubc9K65, 10 μM SUMO-1, 150 nM E1, pH 7.5, triplicate.
A word on the kcat: it is the maximal rate divided by the concentration of active sites. In the case of B1, the kcat worked out at 0.0683 ± 0.005 s⁻¹.
On the same count and under the same terms, for B2 the value was 0.075 ± 0.0067 s⁻¹; for B3, 0.0667 ± 0.0033 s⁻¹.

For another data set, the target named is T2, Ubc9 (WT) (Homo sapiens, UniProt P63279).
T2 construct: made in house; host or cells: E. coli (stated as BL21 (DE3) for the acetylated variant)
T2 sequence (P63279 whole entry): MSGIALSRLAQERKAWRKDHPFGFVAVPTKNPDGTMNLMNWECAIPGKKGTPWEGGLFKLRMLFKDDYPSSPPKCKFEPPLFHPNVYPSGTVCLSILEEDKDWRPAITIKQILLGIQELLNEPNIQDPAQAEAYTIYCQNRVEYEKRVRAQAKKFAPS
Briefly: Multiple-turnover in vitro sumoylation kinetics with WT Ubc9. To be noted: Michaelis-Menten, SUMO-1 conjugation, 100 nM WT Ubc9, 10 μM SUMO-1, 150 nM E1, pH 7.5, SDS-PAGE/SYPRO-RUBY, triplicate. In kind it is biochemical. On the procedure: as §1, §2, §3
As for B1, the Km amounted to 24.8 ± 1.7 µM.
Same read-out and setting: for B2 the value was 63.8 ± 7.9 µM; for B3, 75.2 ± 5.9 µM.

Still in this data set, the particulars now being: Michaelis-Menten, SUMO-1 conjugation, 100 nM WT Ubc9, 10 μM SUMO-1, 150 nM E1, pH 7.5, triplicate.
On to B1, for which the kcat worked out at 0.0717 ± 0.0017 s⁻¹.
Same read-out and setting: for B2 the value was 0.0633 ± 0.0067 s⁻¹; for B3, 0.0617 ± 0.0083 s⁻¹.
